This note sets out measurements from patent publication US20240294670A1 (University of Texas, published 2024).

The target in one assay is T1, recombinant mouse CHI3L1 (mouse, UniProt Q61362 30-389, limits assumed).
T1 construct: His-tagged; also called mCHI3L1; mChi3l1
Description: ELISA: mouse CHI3L1 coated on the plate, B cell culture supernatant 100 ul/well, A450. As to the method: (§1) FIG. 7. The ELISA binding of the supernatant antibody to the human CHI3L1. (hCHI3L1), and mouse CHI3L1 (mCHI3L1). The CHI3L1 protein was coated on maxi-sorp 96-well plates, cell culture supernatant (100 ul/well) was used for binding on the antigen coated plate. Binding signals (A450 nm) are shown in Y-axis and CHI3L1 mAbs are shown on X-axis.
(§2) Binding affinity of anti-CHI3L1 monoclonal antibodies to the CHI3L1 protein using ELISA method. Binding of CHI3L1 by monoclonal antibodies was first screened by ELISA using supernatants collected from the B cell cultures and cross reactivity to mouse CHI3L1 protein was determined (FIG. 7).
Background: ELISA stands for enzyme-linked immunosorbent assay.

Another assay deals with T2, recombinant human CHI3L1 (human, UniProt P36222 22-383).
T2 construct: His-tagged recombinant protein (Sino Biological 11227-H08H, or in-house HEK293 protein with 6xHIS-tag and avi-tag); also called hCHI3L1; hChi3l1
As to the kind of experiment: ELISA: human CHI3L1 coated on the plate, B cell culture supernatant 100 ul/well, A450. As to the method:
as §1, §2

T2 sequence (P36222 22-383 limits assumed): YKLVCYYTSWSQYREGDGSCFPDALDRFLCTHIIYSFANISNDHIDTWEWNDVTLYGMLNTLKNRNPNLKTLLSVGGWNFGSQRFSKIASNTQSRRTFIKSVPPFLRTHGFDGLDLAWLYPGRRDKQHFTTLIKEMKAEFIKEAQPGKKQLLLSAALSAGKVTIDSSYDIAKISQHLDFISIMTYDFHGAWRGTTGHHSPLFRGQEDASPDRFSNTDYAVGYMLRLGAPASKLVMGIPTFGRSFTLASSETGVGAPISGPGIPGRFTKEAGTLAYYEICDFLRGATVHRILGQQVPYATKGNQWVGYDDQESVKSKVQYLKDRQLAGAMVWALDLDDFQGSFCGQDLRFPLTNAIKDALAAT
T1 sequence (Q61362 30-389 limits assumed): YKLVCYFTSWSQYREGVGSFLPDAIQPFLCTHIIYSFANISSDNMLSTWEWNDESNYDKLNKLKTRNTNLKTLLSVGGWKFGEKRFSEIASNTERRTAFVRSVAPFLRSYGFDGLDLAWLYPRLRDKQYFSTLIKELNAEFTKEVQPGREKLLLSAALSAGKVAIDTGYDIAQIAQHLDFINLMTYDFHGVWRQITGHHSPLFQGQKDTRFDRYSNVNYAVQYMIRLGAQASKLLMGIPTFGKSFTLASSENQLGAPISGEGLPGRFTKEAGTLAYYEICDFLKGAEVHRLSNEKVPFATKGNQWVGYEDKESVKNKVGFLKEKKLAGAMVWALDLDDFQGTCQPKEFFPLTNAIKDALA

B1: anti-CHI3L1 monoclonal antibody C28 (antibody, V domains shown)
VH: QQLKESGGDLVKPGASLTLTCTASGFSFSSGYYMCWVRQAPGKGLEWIACIGASSGLTNYASWAKGRFTISKTSSTTVTLRMTSLTAADTATYFCARVYLGGADYEQFNLWGPGTLVTVSS
VL: AQVLTQTPSSASEPVGGTVTIKCQAGESVSSRVAWYQQKPGQPPKLLIFDASALASGVSSRFTGSGSGTQFTLTISDLECADAATYYCQNYYGISGVAFGGGTEVVVK
notes: Rabbit mAb
For the molecule B1, the binding result is “no binding” with recombinant mouse CHI3L1 and “binds” with recombinant human CHI3L1.

B2: anti-CHI3L1 monoclonal antibody C23 (antibody, V domains shown)
VH: QSVKESGGGLVQPGGSLTLSCKASGFDFSSYYMSWVRQAPGKGLEWIGIIYGGKGTTDYASWVNGRFTISSDNAQNTVDLQMNSLTAADTATYFCARDYVSSSGYYMDLWGPGTLVTVSS
VL: ALVMTQTPASVSAAVGGTVTIKCQASEDIYSLLAWYQQKPGQPPKLLIYDASDLASGVPSRFSGSGSGTEYTLTISDLECDDAATYYCQGGYYSGSPTDNSFGGGTKVVVE
notes: Rabbit mAb
Consider B2, for which the binding result with recombinant mouse CHI3L1 was “no binding”; with recombinant human CHI3L1, “binds”.

B3: anti-CHI3L1 monoclonal antibody C25 (antibody, V domains shown)
VH: QSVEESGGDLVKPGASLTLTCTASGFSFSSSYYMCWVRQAPGKGLEWIACIYAGSSGSTWYASWAKGRFTISITSSTTVTLQMTSLTAADTATYFCARDRYGGGSYYIPYYFDLWGPGTLVTVSS
VL: ALVMTQTPSPVSAAVGGTVTINCQASQNIYVDSYLAWYQQKSGQPPKLLIYYASSLASGVPSRFSGSGSGTQFTLTISDLECDDAATYYCAGGYSADSDNAFGGGTEVVVK
notes: Rabbit mAb
As for B3, the values for the binding result with recombinant mouse CHI3L1 and with recombinant human CHI3L1 were “no binding” and “binds”, respectively.

B4: anti-CHI3L1 monoclonal antibody C29 (antibody, V domains shown)
VH: QEQLVESGGDLVKPEGSLTLTCTASGFSFSDNYWMCWVRQAPGKGLEWIGCIYIGFSGTTYYASWAKGRFTISKASSTTVTLQMTSLTGADTATYFCARGVFYVGSGYWYYLNLWGPGTLVTISS
VL: DVVMTQTPSSVSAAVGGTVTIKCQASQSIASYLAWYQQKPGQPPKLLIYRASTLASGVPSRFKGSGSGTEYTLTISDLECADAATYYCQTTYVGGSGNAFGGGTKVEIK
notes: Rabbit mAb
Consider B4, for which the binding result with recombinant mouse CHI3L1 was “no binding”; with recombinant human CHI3L1, “binds”.

B5: anti-CHI3L1 monoclonal antibody C27 (antibody, V domains shown)
VH: QSVEESGGGLVKPEGSLTLTCTASGFSFSYRYYMCWVRQAPGKGLEWIGCIDNGDGDTYYASWVNGRFTISKASSTTVTLQMTSLTAADTATYFCARGSSGYNGFNFWGPGTLVTVSS
VL: ALVMTQTPASVSAAVAGTVTIKCQASQSIGSYLAWYQQKPGQPPKLLIYATSILASGVSSRLKGSRSGTEYTLTISDLECADAATYYCQCGYYDSNYGGAFGGGTEVVVK
notes: Rabbit mAb
As for B5, the binding result in the assay with recombinant mouse CHI3L1 is on record as “no binding”; with recombinant human CHI3L1, “binds”.
